Measurements as given in patent publication US20240240189A1, “CANCER TREATMENT BY TARGETING PROTEINS OR INTERACTIONS OF EPHRINB-RGS3-KIF20A-SEPT7 AXIS” (CITY OF HOPE, priority 2021, published 2024).
“Also recorded” adds a separate entry of the source.

Columns and labels:
Daoy human MB cells = assay: Growth assay of Daoy cells; type: cell-based; conditions: parental Daoy cells with or without doxycycline
Procedure: Generation of Daoy cell lines with stably integrated Tet-on inducible shRNA expression system: Daoy cells were infected with lentivirus of Tet-on inducible human KIF20A shRNA-726 and GFP-Luciferase prepared from Tet-pLKO-hushKIF20A726 plasmid and Hiv7CMVGFP-IRES-Luciferase plasmid, respectively. The transduced Daoy cells were selected for stable single clones with Puromycin (1 μg/ml, Sigma-Aldrich) and GFP fluorescence signal in DMEM (Invitrogen) with 10% fetal bovine serum. Single clones were picked up by glass cloning cylinders (Sigma-Aldrich) in 10 cm plate.
Growth Assay of tumor cells: Mouse MB cell lines, or Daoy clones stably integrated with Tet-on inducible human KIF20A shRNA-726, or Wild Type Daoy cells, were seeded into multiple wells of 24 well plates (2×10^4 or 1×10^4 cells per well). Cells in quadruplicate were then dissociated and counted using a hemocytometer at consecutive days after initial plating.

human KIF20A transcript = assay: shRNA screening by dual luciferase reporter assay; type: cell-based; conditions: transfected HEK293 cells, shRNA in pNUT vector, cDNA target in psi-CHECK, 48 hours
Procedure: FIGS. 10a-10c show generation of human KIF20A shRNAs and stable Daoy cell lines. […] Candidate shRNAs in pNUT vector were first screened with a cDNA target cloned in psi-CHECK vector in transfected HEK293 cells, using a dual luciferase reporter assay and their cDNA target in psi-CHECK Vector (Promega). Six candidate shKIF20As were tested with this assay. […] Data are mean±S.D. **P<0.01, ***P<0.001 (two-way ANOVA).
DNA Constructs, Lentivirus Production: Lentiviral transfer plasmids used in this study include: Hiv7CMV-Cre-myc-2A-GFP (Addgene #117148), Hiv7CMV-GFP, Hiv7CMV-GFP-IRES-Luciferase, as well as Tet-on inducible shRNA plasmids Tet-pLKO-hushKIF20A726 or Tet-pLKO-hushKIF20A181-Puro (shRNA sequences were cloned into pLKO-Tet-On plasmid, Addgene #21915 at Agel/EcoRI sites). […]
shRNA design and screening: Potential shRNA sequences were selected using web-based design tool (rnaidesigner.thermofisher.com/rnaiexpress/design.do). shRNAs were expressed under the control of a mouse U6 promoter in pNUTs vector which additionally contains a ubiquitin promoter-EGFP expression cassette. Candidate shRNAs in pNUTs and cDNA target in psi-CHECK were co-transfected into HEK293 cells in triplicates; 48 hours later, the firefly and Renilla Luciferase values were determined with Promega's Dual-Luciferase® Reporter Assay System (Promega, E1910). […]

[1] = test system: neural progenitor cells (NPCs); assay: In utero electroporation over-expression in the mouse cortex; type: in vivo; conditions: expression plasmid delivered at E13.5 via IUE, brains collected at E15.5
Description: Expression plasmid of GFP, RBD (RGS-binding domain of mouse KIF20A), or RGS was delivered into the cortices at E13.5 via in utero electroporation (IUE). Brains were collected at E15.5 for analyses. Distribution of transfected cells (GFP+) across the radial domains were scored. […] VZ, ventricular zone; IZ, intermediate zone; CP, cortical plate. Green and blue asterisks indicate P<0.01 (Student's t-test) for CP and SVZ/VZ distributions, respectively.
RGS3-KIF20A interaction is mediated by the RGS domain of RGS3 and the RGS-binding domain (RBD) of KIF20A which is located to amino acids 625-818 of mouse KIF20A sequence (FIG. 13a)^9. […] In this experiment, expression plasmid of GFP, RBD (RGS-binding domain of KIF20A), or RGS was delivered into the cortices at E13.5 via IUE. Brains were collected at E15.5 for analyses. Distribution of transfected cells (GFP+) across the radial domains were scored.

GISC017 cells = assay: Cell cycle exit analysis (EdU/Ki67) in GISC017 cells; type: cell-based, human; conditions: lentiviral expression of RBD
Description: To further investigate the relevance of KIF20A in human brain tumors, inhibition of KIF20A in patient-derived GBM-initiating/stem cells (GISCs) was examined. As the ERKS axis functions in different types of brain tumor-initiating/stem cells, data obtained from study of GISCs would be applicable to other brain tumor cell types. Multiple lines of patient-derived GISCs were obtained from Dr. Christine Brown. These low passaged GISCs could be expanded in cultures and could engraft in NSG mice^43, 44. FIG. 11 summarizes the results of testing KIF20A in one GISC line (GISC017) by constitutive expression of a control scrambled shRNA or shKIF20A726 (shRNA targeting hKIF20A) in pNUT vector-based lentiviral expression system. […] In the above cell cycle exit analysis, co-staining of differentiation markers (e.g. βlll-tubulin, DCX, or NeuN) was performed, however, these markers were detected in EdU^+Ki67^− (cells having left the cell cycle) but also in some EdU^+Ki67^+ (cells staying in the cell cycle) cells, which might reflect a technical artefact observed with progenitor/stem cells in culture. […]

SEPT7 = target: T1, SEPT7 (Mus musculus, UniProt O55131); conditions: cited from earlier work
T1 sequence (O55131 1-436): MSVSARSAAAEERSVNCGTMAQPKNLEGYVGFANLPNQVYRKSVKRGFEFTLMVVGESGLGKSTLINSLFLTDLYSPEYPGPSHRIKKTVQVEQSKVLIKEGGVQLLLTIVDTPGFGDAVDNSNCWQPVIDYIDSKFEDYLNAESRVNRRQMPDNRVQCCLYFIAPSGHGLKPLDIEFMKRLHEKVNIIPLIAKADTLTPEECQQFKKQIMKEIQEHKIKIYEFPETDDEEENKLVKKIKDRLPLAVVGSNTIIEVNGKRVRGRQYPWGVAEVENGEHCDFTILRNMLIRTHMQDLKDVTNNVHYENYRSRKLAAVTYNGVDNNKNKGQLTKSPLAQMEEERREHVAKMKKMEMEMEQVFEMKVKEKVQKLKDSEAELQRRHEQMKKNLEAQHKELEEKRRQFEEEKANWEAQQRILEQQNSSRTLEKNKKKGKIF

RGS3-KIF20A interaction = target: T2, RGS3-KIF20A interaction (Mus musculus, UniProt Q9DC04); assay: GST-RGS pulldown experiment; type: binding; conditions: expression of RBD, GST-RGS pull down
T2 construct: mediated by the RGS domain of RGS3
T2 sequence (Q9DC04 841-966 limits assumed): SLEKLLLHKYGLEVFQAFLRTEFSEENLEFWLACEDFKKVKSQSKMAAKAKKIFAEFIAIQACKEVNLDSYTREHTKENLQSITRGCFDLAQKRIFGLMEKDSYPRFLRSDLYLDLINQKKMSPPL

C[C@H]1c2cccc(O)c2C(=O)C2=C(O)[C@]3(O)C(=O)C(C(N)=O)=C(O)[C@@H](N(C)C)[C@@H]3[C@@H](O)[C@@H]21 [doxycycline, reference compound]
growth of parental Daoy cells (cytotoxicity of doxycycline) (Daoy human MB cells): not affected

5′-AGTATGGAGAAGGTGAAAG-TTCAAGAGA-CTTTCACCTTCTCCATACT-3′ (AGTATGGAGAAGGTGAAAGTTCAAGAGACTTTCACCTTCTCCATACT; expressed or natural sequence) [shKIF20A181, shRNA targeting human KIF20A transcript]
inhibition of expression of the human KIF20A transcript (luciferase assay) (human KIF20A transcript): significantly inhibit expression of the human KIF20A transcript

B1: RBD: RGS-binding domain of KIF20A, amino acids 625-818 of mouse KIF20A sequence; competitive inhibitor for RGS3-KIF20A interaction (protein)
chain: LKILKESLTTFYQEQIQERDEKIEELETLLQEAKQQPAAQQSGGLSLLRRSQRLAASASTQQFQEVKAELEQCKTELSSTTAELHKYQQVLKPPPPAKPFTIDVDKKLEEGQKNIRLLRTELQKLGQSLQSAERACCHSTGAGKLRQALTNCDDILIKQNQTLAELQNNMVLVKLDLQKKAACIAEQYHTVLKL
modifications: left off: small tags and cut ends
neuronal differentiation of neural progenitor cells [1]: caused precocious neuronal differentiation of the affected NPCs; also recorded: caused neural progenitor cell differentiation and subsequent outward migration of newly born neurons into the IZ and CP regions
neuronal differentiation of neural progenitor cells ([1]; listed as KIF20A625-818): cause neuronal differentiation
cell cycle exit (GISC017 cells): induce cell cycle exit; also recorded: caused cell cycle exit
interaction with SEPT7 (SEPT7): interacts with SEPT7
inhibition of binding of GST-RGS and KIF20A (RGS3-KIF20A interaction): inhibited binding between RGS3 and mouse KIF20A
inhibition of binding of GST-RGS and KIF20A (RGS3-KIF20A interaction; listed as Flag-RBD): inhibited binding of GST-RGS and KIF20A in a dose dependent manner
inhibition of binding of GST-RGS and KIF20A (RGS3-KIF20A interaction; listed as KIF20A625-818): block interaction between KIF20A and RGS3
